Data from article PMC12700559, “Structural basis for simvastatin-induced skeletal muscle weakness associated with type 1 ryanodine receptor T4709M mutation” (The Journal of Clinical Investigation, 2025).

Biological target: type 1 ryanodine receptor (RyR1), endogenous channel from mouse skeletal muscle (mouse (endogenous in mouse skeletal muscle)) (UniProt E9PZQ0)
Assay: cryo-EM structure; endogenous RyR1 purified from mouse skeletal muscle, ~15 uM protomer, in CHAPS/DOPC buffer; with 5 mM EGTA only or with 10 mM ATP, 5 mM caffeine, 30 uM free Ca2+, with or without 10 mM simvastatin lactone; C4 symmetry imposed

Sequence of type 1 ryanodine receptor (RyR1), endogenous channel from mouse skeletal muscle, E9PZQ0 1-5035 (natural protein) (E9PZQ0 whole entry): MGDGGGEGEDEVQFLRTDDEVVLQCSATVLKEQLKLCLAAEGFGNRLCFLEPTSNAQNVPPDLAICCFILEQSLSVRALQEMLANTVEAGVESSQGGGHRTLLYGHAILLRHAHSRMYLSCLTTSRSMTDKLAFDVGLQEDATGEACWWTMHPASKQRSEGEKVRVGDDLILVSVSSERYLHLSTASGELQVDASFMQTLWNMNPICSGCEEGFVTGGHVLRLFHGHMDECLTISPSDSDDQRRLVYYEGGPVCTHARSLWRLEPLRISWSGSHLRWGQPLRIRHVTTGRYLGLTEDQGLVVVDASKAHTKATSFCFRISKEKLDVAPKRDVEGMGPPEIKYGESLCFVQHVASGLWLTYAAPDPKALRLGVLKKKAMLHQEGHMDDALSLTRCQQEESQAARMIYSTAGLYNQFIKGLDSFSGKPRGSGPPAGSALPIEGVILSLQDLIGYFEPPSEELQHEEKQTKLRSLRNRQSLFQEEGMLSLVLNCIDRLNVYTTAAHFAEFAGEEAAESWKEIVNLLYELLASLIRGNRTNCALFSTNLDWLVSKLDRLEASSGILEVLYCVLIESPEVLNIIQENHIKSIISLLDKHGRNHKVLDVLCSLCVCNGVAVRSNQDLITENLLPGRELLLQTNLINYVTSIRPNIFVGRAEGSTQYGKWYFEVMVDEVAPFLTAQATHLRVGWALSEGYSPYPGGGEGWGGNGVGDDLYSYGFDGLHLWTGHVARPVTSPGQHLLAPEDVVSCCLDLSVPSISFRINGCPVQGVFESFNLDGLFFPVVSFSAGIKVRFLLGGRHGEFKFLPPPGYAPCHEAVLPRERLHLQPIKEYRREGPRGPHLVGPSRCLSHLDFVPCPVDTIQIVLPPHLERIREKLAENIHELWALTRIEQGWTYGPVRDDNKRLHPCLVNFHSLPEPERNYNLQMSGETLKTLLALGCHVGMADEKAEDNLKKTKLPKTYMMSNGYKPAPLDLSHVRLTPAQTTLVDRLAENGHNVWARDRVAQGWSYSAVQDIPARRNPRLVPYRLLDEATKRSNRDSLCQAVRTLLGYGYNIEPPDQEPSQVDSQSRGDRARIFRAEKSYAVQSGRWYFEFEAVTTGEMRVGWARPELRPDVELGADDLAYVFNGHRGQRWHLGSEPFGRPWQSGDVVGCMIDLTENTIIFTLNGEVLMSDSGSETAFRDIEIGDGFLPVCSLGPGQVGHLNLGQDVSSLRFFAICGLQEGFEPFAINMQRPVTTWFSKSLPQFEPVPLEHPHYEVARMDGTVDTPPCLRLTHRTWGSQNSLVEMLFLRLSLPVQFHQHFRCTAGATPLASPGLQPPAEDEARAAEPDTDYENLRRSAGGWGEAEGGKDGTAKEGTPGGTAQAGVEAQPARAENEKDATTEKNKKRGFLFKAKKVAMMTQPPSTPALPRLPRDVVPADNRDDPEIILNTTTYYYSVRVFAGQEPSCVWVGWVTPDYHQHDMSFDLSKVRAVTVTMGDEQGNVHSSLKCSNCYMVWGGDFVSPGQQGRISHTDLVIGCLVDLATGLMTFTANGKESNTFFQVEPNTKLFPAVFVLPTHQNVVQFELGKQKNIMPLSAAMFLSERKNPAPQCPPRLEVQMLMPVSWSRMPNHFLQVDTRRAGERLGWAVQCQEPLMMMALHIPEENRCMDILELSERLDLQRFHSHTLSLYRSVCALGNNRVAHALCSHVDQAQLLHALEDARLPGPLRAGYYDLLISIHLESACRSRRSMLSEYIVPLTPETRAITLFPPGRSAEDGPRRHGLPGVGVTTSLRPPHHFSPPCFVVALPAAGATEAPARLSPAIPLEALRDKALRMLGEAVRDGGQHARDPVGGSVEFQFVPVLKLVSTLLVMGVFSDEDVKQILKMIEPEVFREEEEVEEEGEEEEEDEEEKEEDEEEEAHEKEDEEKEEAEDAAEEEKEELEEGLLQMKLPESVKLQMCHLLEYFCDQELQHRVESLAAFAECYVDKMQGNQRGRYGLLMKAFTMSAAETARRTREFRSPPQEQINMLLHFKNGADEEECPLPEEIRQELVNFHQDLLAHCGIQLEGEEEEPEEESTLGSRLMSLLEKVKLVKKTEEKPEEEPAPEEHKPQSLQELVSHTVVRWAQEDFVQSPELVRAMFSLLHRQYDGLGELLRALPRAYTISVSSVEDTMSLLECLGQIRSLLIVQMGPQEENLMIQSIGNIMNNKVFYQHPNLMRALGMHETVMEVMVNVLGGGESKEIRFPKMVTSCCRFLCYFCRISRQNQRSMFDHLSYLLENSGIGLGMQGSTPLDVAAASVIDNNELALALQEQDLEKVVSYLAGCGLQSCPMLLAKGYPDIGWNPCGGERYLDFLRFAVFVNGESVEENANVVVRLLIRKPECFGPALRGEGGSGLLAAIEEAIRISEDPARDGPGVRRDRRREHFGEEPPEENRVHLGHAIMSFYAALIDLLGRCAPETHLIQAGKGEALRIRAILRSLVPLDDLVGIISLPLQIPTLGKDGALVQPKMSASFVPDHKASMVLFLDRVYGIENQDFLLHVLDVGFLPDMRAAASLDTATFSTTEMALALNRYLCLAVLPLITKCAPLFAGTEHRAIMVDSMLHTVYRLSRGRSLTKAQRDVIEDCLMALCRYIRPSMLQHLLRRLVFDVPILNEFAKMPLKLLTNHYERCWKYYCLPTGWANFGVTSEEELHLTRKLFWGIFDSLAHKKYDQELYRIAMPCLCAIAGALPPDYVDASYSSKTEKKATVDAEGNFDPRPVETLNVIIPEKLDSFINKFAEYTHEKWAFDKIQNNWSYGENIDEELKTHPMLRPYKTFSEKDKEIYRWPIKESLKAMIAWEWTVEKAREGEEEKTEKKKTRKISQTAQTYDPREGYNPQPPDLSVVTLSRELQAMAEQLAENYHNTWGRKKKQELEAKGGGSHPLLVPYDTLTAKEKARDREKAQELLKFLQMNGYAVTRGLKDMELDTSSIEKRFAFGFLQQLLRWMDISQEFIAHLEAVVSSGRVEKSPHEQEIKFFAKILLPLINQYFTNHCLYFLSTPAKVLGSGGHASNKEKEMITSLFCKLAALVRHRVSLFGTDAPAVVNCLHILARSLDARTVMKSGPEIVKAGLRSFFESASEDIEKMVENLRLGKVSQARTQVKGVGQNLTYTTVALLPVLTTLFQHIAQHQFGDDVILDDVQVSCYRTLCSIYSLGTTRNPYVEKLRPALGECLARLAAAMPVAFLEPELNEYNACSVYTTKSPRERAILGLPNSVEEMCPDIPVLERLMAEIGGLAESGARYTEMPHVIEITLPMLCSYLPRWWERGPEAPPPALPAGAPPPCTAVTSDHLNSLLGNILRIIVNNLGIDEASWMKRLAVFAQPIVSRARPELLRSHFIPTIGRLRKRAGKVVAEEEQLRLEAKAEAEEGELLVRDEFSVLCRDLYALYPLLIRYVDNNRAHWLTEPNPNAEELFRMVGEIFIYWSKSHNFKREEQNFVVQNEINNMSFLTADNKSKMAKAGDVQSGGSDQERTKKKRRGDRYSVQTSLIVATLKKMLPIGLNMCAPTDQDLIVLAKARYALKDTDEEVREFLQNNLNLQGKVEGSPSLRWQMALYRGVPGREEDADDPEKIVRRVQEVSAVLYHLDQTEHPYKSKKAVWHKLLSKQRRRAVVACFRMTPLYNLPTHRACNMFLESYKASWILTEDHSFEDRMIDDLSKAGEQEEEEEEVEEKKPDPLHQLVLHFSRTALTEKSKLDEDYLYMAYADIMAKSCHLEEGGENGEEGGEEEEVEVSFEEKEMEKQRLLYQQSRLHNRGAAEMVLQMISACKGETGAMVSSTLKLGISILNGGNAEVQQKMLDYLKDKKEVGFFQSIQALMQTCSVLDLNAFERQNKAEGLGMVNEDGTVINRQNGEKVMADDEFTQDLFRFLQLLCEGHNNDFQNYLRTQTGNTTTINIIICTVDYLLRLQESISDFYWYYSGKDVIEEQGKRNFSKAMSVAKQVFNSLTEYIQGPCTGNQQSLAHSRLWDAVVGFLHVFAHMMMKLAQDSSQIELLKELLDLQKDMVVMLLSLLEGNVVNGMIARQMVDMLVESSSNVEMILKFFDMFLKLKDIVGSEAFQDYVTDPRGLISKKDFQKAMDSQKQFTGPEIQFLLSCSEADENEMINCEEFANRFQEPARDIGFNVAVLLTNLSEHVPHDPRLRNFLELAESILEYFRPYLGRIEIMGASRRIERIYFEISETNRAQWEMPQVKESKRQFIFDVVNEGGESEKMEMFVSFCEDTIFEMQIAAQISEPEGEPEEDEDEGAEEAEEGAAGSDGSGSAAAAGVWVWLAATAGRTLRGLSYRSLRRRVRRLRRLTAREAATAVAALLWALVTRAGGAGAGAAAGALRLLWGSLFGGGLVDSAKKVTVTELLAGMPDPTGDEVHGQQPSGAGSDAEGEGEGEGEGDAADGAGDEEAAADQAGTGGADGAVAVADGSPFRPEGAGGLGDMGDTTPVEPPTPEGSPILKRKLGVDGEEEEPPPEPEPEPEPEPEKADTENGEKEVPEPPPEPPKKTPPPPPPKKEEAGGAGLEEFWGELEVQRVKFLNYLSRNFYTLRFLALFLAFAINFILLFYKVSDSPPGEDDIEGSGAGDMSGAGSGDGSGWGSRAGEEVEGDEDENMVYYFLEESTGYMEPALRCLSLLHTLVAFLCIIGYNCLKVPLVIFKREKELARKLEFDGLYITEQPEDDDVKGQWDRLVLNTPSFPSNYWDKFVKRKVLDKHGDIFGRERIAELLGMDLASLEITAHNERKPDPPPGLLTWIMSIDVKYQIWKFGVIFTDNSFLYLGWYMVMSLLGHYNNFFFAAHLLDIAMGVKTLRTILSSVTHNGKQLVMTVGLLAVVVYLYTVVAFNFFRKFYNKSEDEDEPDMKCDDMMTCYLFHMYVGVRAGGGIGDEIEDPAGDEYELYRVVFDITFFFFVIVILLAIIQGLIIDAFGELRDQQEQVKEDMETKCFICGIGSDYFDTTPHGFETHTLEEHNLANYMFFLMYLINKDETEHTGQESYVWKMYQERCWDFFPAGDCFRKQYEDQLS

type 1 ryanodine receptor (RyR1), endogenous channel from mouse skeletal muscle, E9PZQ0 1-5035 (natural protein)
stoichiometry N: 4
